Data reported in the supplement of paper PMC11246515.
± gives the standard deviation of the averaged measurements.

Experiment: total protein half-life in vivo (active degradation + dilution); higher = more stable protein
[1] = E. coli NCM3722 delta-clpP delta-lon delta-hslV, growth: N-lim chemostat, doubling time 6 h
[2] = E. coli NCM3722 delta-clpP, growth: N-lim chemostat, doubling time 6 h
[3] = E. coli NCM3722 delta-smpB, growth: N-lim chemostat, doubling time 6 h
[4] = wild type E. coli NCM3722, growth: C-lim chemostat, doubling time 3 h
[5] = wild type E. coli NCM3722, growth: C-lim chemostat, doubling time 12 h
[6] = wild type E. coli NCM3722, growth: N-lim chemostat, doubling time 6 h
[7] = wild type E. coli NCM3722, growth: N-lim chemostat, doubling time 12 h
[8] = wild type E. coli NCM3722, growth: P-lim chemostat, doubling time 6 h
[9] = wild type E. coli NCM3722, growth: P-lim chemostat, doubling time 12 h
[10] = E. coli NCM3722 delta-hslV, growth: N-lim chemostat, doubling time 6 h
[11] = E. coli NCM3722 delta-lon, growth: N-lim chemostat, doubling time 6 h
[12] = wild type E. coli NCM3722, growth: C-lim chemostat, doubling time 6 h

Sequence | total protein half-life in vivo [1] | total protein half-life in vivo [2] | total protein half-life in vivo [3] | total protein half-life in vivo [4] | total protein half-life in vivo [5] | total protein half-life in vivo [6] | total protein half-life in vivo [7] | total protein half-life in vivo [8] | total protein half-life in vivo [9] | total protein half-life in vivo [10] | total protein half-life in vivo [11] | total protein half-life in vivo [12]
MNTLLLLAALSSQITFNTTQQGDVYTIIPEVTLTQSCLCRVQILSLREGSSGQSQTKQEKTLSLPANQPIALTKLSLNISPDDRVKIVVTVSDGQSLHLSQQWPPSSEKS | 4.26 ± 0.3 h | 3.33 h | 3.31 ± 0.35 h | 2.3 h | 5.97 ± 1.4 h | 4.1 h | 6.87 ± 0.16 h | 4.19 h | 7.71 ± 0.17 h |  |  | 
MNIFTEAAKLEEQNCPFAMAQIVDSRGSTPRHSAQMLVRADGSIVGTIGGGMVERKVIEESLQALQERKPRLFHGRMARNGADAVGSDCGGAMSVFISVHGMRPRLVLIGAGHVNRAIAQSAALLGFDIAVADIYRESLNPELFPPSTTLLHAESFGAAVEALDIRPDNFVLIATNNQDREALDKLIEQPIAWLGLLASRRKVQLFLRQLREKGVAEEHIARLHAPVGYNIGAETPQEIAISVLAEILQVKNNAPGGLMMKPSHPSGHQLVVIRGAGDIASGVALRLYHAGFKVIMLEVEKPTVIRCTVAFAQAVFDGEMTVEGVTARLATSSAEAMKLTERGFIPVMVDPACSLLDELKPLCVVDAILAKQNLGTRADMAPVTIALGPGFTAGKDCHAVIETNRGHWLGQVIYSGCAQENTGVPGNIMGHTTRRVIRAPAAGIMRSNVKLGDLVKEGDVIAWIGEHEIKAPLTGMVRGLLNDGLAVVGGFKIGDIDPRGETADFTSVSDKARAIGGGVLEALMMLMHQGVKATKEVLEVA | 5.14 ± 0.82 h | 1.65 ± 0.36 h |  |  |  |  | 1.22 h |  |  |  |  | 
MNSIFTEENLLAFTTAARFGSFSKAAEELGLTTSAISYTIKRMETGLDVVLFTRSTRSIELTESGRYFFRKATDLLNDFYAIKRRIDTISQGIEARVRICINQLLYTPKHTARLLQVLKKQFPTCQITVTTEVYNGVWDAIINNQANIAIGAPDTLLDGGGIDYTEIGAIRWAFAIAPDHPLAFVPEPIAESQLRLYPNIMVEDTAHTINKKVGWLLHGQESILVPDFNTKCQCQILGEGIGFLPDYMVREAMTQSLLVTRQIHNPRQDSRMLLATQHSATGQVTQWIKKQFAPNGILTGIYQDLLHREN | 5.9 h |  |  |  |  |  |  |  |  |  |  | 
MNSFNEGVVSPLLSFWRRSLMLAGALLLTACSHNSSLPPFTASGFAEDQGAVRIWRKDSGDNVHLLAVFSPWRSGDTTTREYRWQGDNLTLININVYSKPPVNIRARFDDRGDLSFMQRESDGEKQQLSNDQIDLYRYRADQIRQISDALRQGRVVLRQGRWHAMEQTVTTCEGQTIKPDLDSQAIAHIERRQSRSSVDVSVAWLEAPEGSQLLLVANSDFCRWQPNEKTF | 6.47 ± 1.2 h | 7.12 ± 0.33 h | 6.11 ± 0.48 h | 3.17 ± 0.14 h | 11.2 h | 6.3 ± 0.074 h | 13.2 ± 1.6 h | 6.31 ± 0.4 h | 14.1 ± 1.4 h | 6.4 h | 6.98 h | 
MQTQLTEEMRQNARALEADSILRACVHCGFCTATCPTYQLLGDELDGPRGRIYLIKQVLEGNEVTLKTQEHLDRCLTCRNCETTCPSGVRYHNLLDIGRDIVEQKVKRPLPERILREGLRQVVPRPAVFRALTQVGLVLRPFLPEQVRAKLPAETVKAKPRPPLRHKRRVLMLEGCAQPTLSPNTNAATARVLDRLGISVMPANEAGCCGAVDYHLNAQEKGLARARNNIDAWWPAIEAGAEAILQTASGCGAFVKEYGQMLKNDALYADKARQVSELAVDLVELLREEPLEKLAIRGDKKLAFHCPCTLQHAQKLNGEVEKVLLRLGFTLTDVPDSHLCCGSAGTYALTHPDLARQLRDNKMNALESGKPEMIVTANIGCQTHLASAGRTSVRHWIEIVEQALEKE |  |  | 1.29 ± 0.16 h | 1.33 ± 0.28 h | 4.17 ± 0.18 h |  | 2.2136 ± 0.00075 h | 2.14 h | 4.65 ± 0.33 h | 1.54 h | 2.63 ± 0.16 h | 2.42 ± 0.12 h
MKKIACLSALAAVLAFTAGTSVAATSTVTGGYAQSDAQGQMNKMGGFNLKYRYEEDNSPLGVIGSFTYTEKSRTASSGDYNKNQYYGITAGPAYRINDWASIYGVVGVGYGKFQTTEYPTYKHDTSDYGFSYGAGLQFNPMENVALDFSYEQSRIRSVDVGTWIAGVGYRF [P0A917] | 7.26 ± 0.62 h | 6.37 ± 0.47 h | 5.81 ± 0.095 h | 3.09 ± 0.13 h | 14.4 ± 0.89 h | 6.09 ± 0.073 h | 12.9 ± 1.1 h | 6.15 ± 0.19 h | 12.9 ± 0.62 h | 6.51 ± 0.36 h | 6.76 ± 0.59 h | 6.04 ± 0.27 h
MSWLKEVIGTEKAVIAMCHLRALPGDPSFDAQLGMNWVIDKAWDDLMALQNGGVDAVMFSNEFSLPYLTKVRPETTAAMARIIGQLMSDIRIPFGVNVLWDPVASFDLAMATGAKFIREIFTGAYASDFGVWDTNVGETIRHQHRIGAGEVKTLFNIVPEAAVYLGNRDICSIAKSTVFNNHPDALCVSGLTAGTRTDSALLKRVKETVPDTVVLANTGVCLENVEEQLSIADGCVTATTFKKDGVFANFVDQARVSQFMEKVHHIRR | 4.34 ± 0.67 h |  |  | 1.07 ± 0.83 h | 8.62 ± 0.11 h |  |  |  | 3.45 h |  |  | 5.65 ± 0.48 h
MAHRPRWTLSQVTELFEKPLLDLLFEAQQVHRQHFDPRQVQVSTLLSIKTGACPEDCKYCPQSSRYKTGLEAERLMEVEQVLESARKAKAAGSTRFCMGAAWKNPHERDMPYLEQMVQGVKAMGLEACMTLGTLSESQAQRLANAGLDYYNHNLDTSPEFYGNIITTRTYQERLDTLEKVRDAGIKVCSGGIVGLGETVKDRAGLLLQLANLPTPPESVPINMLVKVKGTPLADNDDVDAFDFIRTIAVARIMMPTSYVRLSAGREQMNEQTQAMCFMAGANSIFYGCKLLTTPNPEEDKDLQLFRKLGLNPQQTAVLAGDNEQQQRLEQALMTPDTDEYYNAAAL | 3.43 ± 0.23 h | 2.236 ± 0.018 h | 0.799 ± 0.048 h | 0.8031 ± 0.0044 h | 1.44 ± 0.52 h | 0.897 ± 0.17 h | 1.09 ± 0.08 h | 1.44 ± 0.36 h | 2.68 ± 0.76 h | 0.669 h | 0.723 ± 0.084 h | 1.3 ± 0.08 h
MKKTAAIISACMLTFALSACSGSNYVMHTNDGRTIVSDGKPQTDNDTGMISYKDANGNKQQINRTDVKEMVELDQ | 5.09 ± 0.4 h | 5.11 ± 0.78 h | 5.68 ± 1.2 h | 3.35 ± 0.3 h | 10.3 ± 0.96 h | 5.312 ± 0.043 h | 11.3 h | 4.83 ± 0.12 h | 11.1 ± 0.28 h | 5.48 ± 0.12 h |  | 5.25 ± 0.68 h
